Experimental data taken from the RNAGym collection of RNA variant scans (doi:10.1073/pnas.2313332121).
This sample holds only a part of the variants without activity.

B1: TPR 5TU (parent)
chain: GGAUCUUCUCGAUCUAACAAAAAAGACAAAUCUGCCACAAAGCUUGAGAGCAUCUUCGGAUGCAGAGGCGGCAGCCUUCGGUGGCGCGAUAGCGCCAACGUUCUCAACUAUGACACGCAAAACGCGUGCUCCGUUGAAUGGAGUUUAUCAUG

Variants of: B1
Assay: polymerase ribozyme fitness, log enrichment relative to wild type (log ratio); higher = more active; in vitro selection for triplet polymerase activity
Procedure, shortened: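 Fitness is a logarithmic measure of how a genotype enriched relative to the wild type, with replicate averages weighted by inverse variance. The logarithm uses base 2, and enrichment came from Illumina sequencing of input and output libraries. Those libraries were PCR-built, transcribed mutants of each subunit of a heterodimeric triplet polymerase ribozyme, passed through one triplicate in vitro selection round that included frozen incubation at −7 °C, gel excision of extended constructs and streptavidin-bead capture. Genotypes were kept only if they had ≥10 input reads and ≥1 read per output.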

Going from A19U C43U A73U C79U A106U A107C to C35G G71A C96G U139G, the “polymerase ribozyme fitness (log ratio)” value rises from at most -4.2 to -3.91.

First: A12G G42A G62A U101C C105G U134G
Second: C32U G58C C63A
The “polymerase ribozyme fitness (log ratio)” value of the first is lower: at most -4.2 for the first, -3.84 for the second.

Compared with C10G, C99U G117C is higher in “polymerase ribozyme fitness (log ratio)” value: -2.78 for the first, 0.786 for the second.

First: C85U G126A A142G
Second: U6A A41C G50C G84A A119G
The “polymerase ribozyme fitness (log ratio)” value of the first is higher: -0.307 for the first, -3.27 for the second.

Going from U15C A21G A24U U53A to A28U G59U G74U C85G A113U C114A U127A, the “polymerase ribozyme fitness (log ratio)” value falls from 0.983 to at most -4.2.

Going from A22C C32G C43G G92A C114U C118G U139A to C14G A52C G58A C96U C125G, the “polymerase ribozyme fitness (log ratio)” value rises from at most -4.2 to -3.92.

C95U C149A and U9C C93A cannot be ordered by “polymerase ribozyme fitness (log ratio)” value: at most -4.2 for the first, at most -4.2 for the second.

C5A A21G A41C A64U C85A C96U A110U G117U and G62A A64C C85U C95G C105G A121U U134G U139G U151C cannot be ordered by “polymerase ribozyme fitness (log ratio)” value: at most -4.2 for the first, at most -4.2 for the second.

U15C A24G A39G G83A C99G and G68C C99G cannot be ordered by “polymerase ribozyme fitness (log ratio)” value: at most -4.2 for the first, at most -4.2 for the second.

Going from C54G C75U G94A to C27G A37U A64C G88C A91C A120G A122U U148G, the “polymerase ribozyme fitness (log ratio)” value falls from -1.51 to -4.09.

First: C38A U53A C87U
Second: U4A A24U U31G C54U G84A
The “polymerase ribozyme fitness (log ratio)” value of the first is lower: -1.39 for the first, -1.15 for the second.

First: A23C A60U G84U C105A
Second: C93U G152A
The “polymerase ribozyme fitness (log ratio)” value of the first is lower: at most -4.2 for the first, -3.11 for the second.

First: G42A G92C
Second: C54A A115C
The “polymerase ribozyme fitness (log ratio)” value of the first is lower: -3.91 for the first, -1.87 for the second.

Going from U144C U145C to A20C A28U A49C U61A G92A A113G C149G, the “polymerase ribozyme fitness (log ratio)” value falls from -0.39 to at most -4.2.

Compared with U13C G50U G59A U82C A121U G136A, A121G is higher in “polymerase ribozyme fitness (log ratio)” value: -1.14 for the first, -0.0563 for the second.

Compared with C85A G117C C118A A147U, U56A C72U C76U C85U is lower in “polymerase ribozyme fitness (log ratio)” value: -0.0649 for the first, -1.17 for the second.

U9C C18U G71C U82A C85G U146G A150C and A49C A60G G67U C85U C93G A97G cannot be ordered by “polymerase ribozyme fitness (log ratio)” value: at most -4.2 for the first, at most -4.2 for the second.

Going from C85U A89C to G59C C75U A98U, the “polymerase ribozyme fitness (log ratio)” value rises from -1.13 to -0.152.

Going from A21C A24U G46U C57U C93U to A40C U53A A110C, the “polymerase ribozyme fitness (log ratio)” value falls from -1.65 to -4.04.

Compared with A40G A41U, A40G C54G G126A is lower in “polymerase ribozyme fitness (log ratio)” value: -2.41 for the first, -3.46 for the second.

First: A19C A60G C96U
Second: A60U G67A A91G A137U
The “polymerase ribozyme fitness (log ratio)” value of the first is higher: 0.412 for the first, at most -4.2 for the second.

C57A C96U C108U G140A and C35A U53A G62A cannot be ordered by “polymerase ribozyme fitness (log ratio)” value: at most -4.2 for the first, at most -4.2 for the second.

First: C10G A52G U56A C96U G140U
Second: G65U U78A
The “polymerase ribozyme fitness (log ratio)” value of the first is lower: at most -4.2 for the first, -1.52 for the second.

Compared with A24C A28G U53A U134A, C14U U53G is higher in “polymerase ribozyme fitness (log ratio)” value: at most -4.2 for the first, -3.01 for the second.

First: G59U C95U
Second: A16C G86C A110G
The “polymerase ribozyme fitness (log ratio)” value of the first is higher: -2.6 for the first, at most -4.2 for the second.

Going from G59A C95U C103G to A20G A21C G94A U146G, the “polymerase ribozyme fitness (log ratio)” value rises from -2.47 to -0.812.

Going from C36U G81A C95G C96A C99U C149G to A16G C57G C76A, the “polymerase ribozyme fitness (log ratio)” value rises from at most -4.2 to -1.31.

Compared with A20U G70C C93G, U61G G88A is higher in “polymerase ribozyme fitness (log ratio)” value: at most -4.2 for the first, -4.18 for the second.

Going from C5A C99U to C85G A119C, the “polymerase ribozyme fitness (log ratio)” value falls from -0.267 to -2.45.

Compared with C5U C93U, G11A A49C is lower in “polymerase ribozyme fitness (log ratio)” value: 0.375 for the first, at most -4.2 for the second.

Going from C118U to U61G C85A G133C, the “polymerase ribozyme fitness (log ratio)” value falls from -0.256 to -3.52.

Compared with U15G A39U C43U G50C G94A, G59C C75U is higher in “polymerase ribozyme fitness (log ratio)” value: at most -4.2 for the first, -1.52 for the second.

Compared with A21G C27G C114U U135G U146A U148G, U53A C85U G133C is higher in “polymerase ribozyme fitness (log ratio)” value: at most -4.2 for the first, -2.22 for the second.

C5U C105U A138U and C8A A30U C43G U144C cannot be ordered by “polymerase ribozyme fitness (log ratio)” value: at most -4.2 for the first, at most -4.2 for the second.

Compared with G58A C87A A91C C99U, A26C C87U is higher in “polymerase ribozyme fitness (log ratio)” value: at most -4.2 for the first, -1.69 for the second.

Compared with C54U C96G, A19U G80A is higher in “polymerase ribozyme fitness (log ratio)” value: -0.994 for the first, -0.164 for the second.

First: U4A A147C
Second: A39C G84A C85G U90G A91G U111A
The “polymerase ribozyme fitness (log ratio)” value of the first is higher: -0.789 for the first, at most -4.2 for the second.

A40C U109C C116U C131U A147U and C96U U102C C125U are within 0.2 log units of each other in “polymerase ribozyme fitness (log ratio)” value: -2.36 for the first, -2.51 for the second.

Going from U6G G83C to A37C C54G G92U A97U A119U, the “polymerase ribozyme fitness (log ratio)” value falls from -0.223 to at most -4.2.

C96G C116A A138C A147C and C8G C87U are the same in “polymerase ribozyme fitness (log ratio)” value: -3.36 for the first, -3.36 for the second.

First: C14G C85U C103U
Second: U44A C85G U90C U104G
The “polymerase ribozyme fitness (log ratio)” value of the first is higher: -3.1 for the first, at most -4.2 for the second.

Going from G94C A106C C116U to U4C C38G G59A U61A U148C, the “polymerase ribozyme fitness (log ratio)” value falls from -3.12 to at most -4.2.
